± gives the standard deviation of the averaged measurements.
Test system: ATP
Experiment: switch fluorescence ratio, 500 uM ATP over buffer (Cy3 cluster intensity, sum of 5 cycles each) (fold (ratio)); higher = stronger signal-on switching upon ATP binding; sequences stand for … in TCGTCGGCAGCGTCAGATGTGTATAAGAGACAGTTTTTTTTTTTTTTTTTTTTTTTTT…TC
Conditions: aptamer strand: ATP DNA aptamer (quencher-CACCTGGGGGAGTATTGCGGAGGAAGG + anchor), 100 nM annealed; ATP concentration: 500 uM
Outline: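 The quencher-labelled ATP aptamer, at 100 nM, was annealed to Cy3-labelled switching-strand clusters on a modified Illumina MiSeq flow-cell. The clusters were imaged in selection buffer, then after 15 min with 500 uM ATP at 22 °C, and this buffer/ATP cycle ran five times with NaOH stripping and re-annealing between runs. Per-cluster fluorescence ratios, summed target-cycle over summed buffer-cycle Cy3 intensity, were averaged per switch-domain sequence. Clusters outside 100-1000 RFU were excluded.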
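Further: ATP exposure 15 min at 22 °C before imaging.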

TAAGGGGAAG
switch fluorescence ratio: 1.04 ± 0.015

TAAGGGGATT
switch fluorescence ratio: 1.03 ± 0.047

TAAGGGGGAG
switch fluorescence ratio: 0.999 ± 0.01

TAAGGGGGTC
switch fluorescence ratio: 0.981 ± 0.012

TAAGGGTCAG
switch fluorescence ratio: 0.9953 ± 0.0012

TAAGGGTCCC
switch fluorescence ratio: 0.965 ± 0.016

TAAGGGTGA
switch fluorescence ratio: 1.03 ± 0.015

TAAGGGTTAT
switch fluorescence ratio: 0.978 ± 0.023

TAAGGGTTTA
switch fluorescence ratio: 1.06 ± 0.1

TAAGGTACAT
switch fluorescence ratio: 1.09 ± 0.012

TAAGGTAGGG
switch fluorescence ratio: 1.01 ± 0.013

TAAGGTGTTG
switch fluorescence ratio: 1.04 ± 0.024

TAAGGTTCAC
switch fluorescence ratio: 1.003 ± 0.0083

TAAGGTTTGG
switch fluorescence ratio: 0.9862 ± 0.0092

TAAGTACCGG
switch fluorescence ratio: 1.06 ± 0.038

TAAGTACGGC
switch fluorescence ratio: 1.31 ± 0.02

TAAGTAGTTT
switch fluorescence ratio: 1.02 ± 0.013

TAAGTATAGT
switch fluorescence ratio: 1.0211 ± 0.00015

TAAGTCGGTC
switch fluorescence ratio: 0.9827 ± 0.0011

TAAGTCGTGG
switch fluorescence ratio: 0.9735 ± 0.0019

TAAGTGCGGA
switch fluorescence ratio: 0.982 ± 0.011

TAAGTGGGGG
switch fluorescence ratio: 0.979 ± 0.03

TAAGTGTTAG
switch fluorescence ratio: 1.013 ± 0.0074

TAAGTTACAA
switch fluorescence ratio: 1.09 ± 0.019

TAAGTTAGTA
switch fluorescence ratio: 0.9786 ± 0.0091

TAAGTTCTAA
switch fluorescence ratio: 0.979 ± 0.018

TAAGTTGGCT
switch fluorescence ratio: 0.958 ± 0.023

TAAGTTTCCT
switch fluorescence ratio: 1.07 ± 0.03

TAAGTTTGCA
switch fluorescence ratio: 1.003 ± 0.0077

TAAGTTTTAT
switch fluorescence ratio: 0.984 ± 0.021

TAAGTTTTGC
switch fluorescence ratio: 0.979 ± 0.038

TAAGTTTTTT
switch fluorescence ratio: 0.99 ± 0.02

TAATAAAATG
switch fluorescence ratio: 0.99 ± 0.015

TAATAATCAA
switch fluorescence ratio: 1.02 ± 0.051

TAATACGTTG
switch fluorescence ratio: 1.03 ± 0.012

TAATAGAAAA
switch fluorescence ratio: 1.011 ± 0.006

TAATAGACGG
switch fluorescence ratio: 1 ± 0.026

TAATAGTAAT
switch fluorescence ratio: 1.02 ± 0.011

TAATAGTTTG
switch fluorescence ratio: 1.028 ± 0.0095

TAATATCATT
switch fluorescence ratio: 1 ± 0.019

TAATATGATT
switch fluorescence ratio: 0.999 ± 0.029

TAATATTCAA
switch fluorescence ratio: 1.03 ± 0.014

TAATATTCGA
switch fluorescence ratio: 0.995 ± 0.018

TAATATTGTT
switch fluorescence ratio: 1.007 ± 0.0095

TAATCAAAGT
switch fluorescence ratio: 1.02 ± 0.018

TAATCACCTA
switch fluorescence ratio: 1.038 ± 0.0093

TAATCCAGAA
switch fluorescence ratio: 1.01 ± 0.082

TAATCCATCG
switch fluorescence ratio: 1.03 ± 0.049

TAATCGGCTC
switch fluorescence ratio: 1 ± 0.03

TAATCGGCTG
switch fluorescence ratio: 0.991 ± 0.069

TAATCGGTG
switch fluorescence ratio: 0.9805 ± 0.0024

TAATCGTGGG
switch fluorescence ratio: 1.02 ± 0.011

TAATCTAATA
switch fluorescence ratio: 0.987 ± 0.046

TAATCTCCGG
switch fluorescence ratio: 1.04 ± 0.04

TAATCTTGGG
switch fluorescence ratio: 1 ± 0.011

TAATGAATAG
switch fluorescence ratio: 1.01 ± 0.042

TAATGAATTC
switch fluorescence ratio: 1.003 ± 0.0081

TAATGAGAAC
switch fluorescence ratio: 0.974 ± 0.014

TAATGAGGTC
switch fluorescence ratio: 0.99 ± 0.046

TAATGAGTTT
switch fluorescence ratio: 1.006 ± 0.0016

TAATGATTGT
switch fluorescence ratio: 0.982 ± 0.042

TAATGCGATG
switch fluorescence ratio: 0.9852 ± 0.005

TAATGGATGT
switch fluorescence ratio: 0.976 ± 0.027

TAATGGGGGC
switch fluorescence ratio: 0.994 ± 0.018

TAATGGGGTT
switch fluorescence ratio: 1 ± 0.024

TAATGGGTTA
switch fluorescence ratio: 1 ± 0.037

TAATGGTGT
switch fluorescence ratio: 1.02 ± 0.041

TAATGTGCAA
switch fluorescence ratio: 1.09 ± 0.013

TAATGTGGGT
switch fluorescence ratio: 0.967 ± 0.015

TAATGTTTAT
switch fluorescence ratio: 0.996 ± 0.026

TAATTAGGGT
switch fluorescence ratio: 1 ± 0.025

TAATTATCTT
switch fluorescence ratio: 0.979 ± 0.058

TAATTATTCT
switch fluorescence ratio: 1.02 ± 0.014

TAATTCACCA
switch fluorescence ratio: 1.18 ± 0.18

TAATTCGACT
switch fluorescence ratio: 1.02 ± 0.029

TAATTCGGTT
switch fluorescence ratio: 1 ± 0.021

TAATTGAGAA
switch fluorescence ratio: 0.986 ± 0.037

TAATTGGAGT
switch fluorescence ratio: 0.972 ± 0.014

TAATTGGGTC
switch fluorescence ratio: 1.024 ± 0.0024

TAATTGTAAG
switch fluorescence ratio: 0.979 ± 0.017

TAATTGTCTA
switch fluorescence ratio: 1 ± 0.043

TAATTTACCT
switch fluorescence ratio: 1.275 ± 0.0075

TAATTTGAGG
switch fluorescence ratio: 0.955 ± 0.012

TAATTTGTCA
switch fluorescence ratio: 1.008 ± 0.0076

TAATTTTAGC
switch fluorescence ratio: 0.9913 ± 0.0086

TAATTTTGGC
switch fluorescence ratio: 0.99 ± 0.018

TACAAAAAGG
switch fluorescence ratio: 0.981 ± 0.023

TACAAGCGTA
switch fluorescence ratio: 0.992 ± 0.014

TACAAGGACG
switch fluorescence ratio: 1.03 ± 0.098

TACAAGGGCA
switch fluorescence ratio: 1.01 ± 0.037

TACAAGTCAA
switch fluorescence ratio: 1.02 ± 0.017

TACAAGTTTG
switch fluorescence ratio: 0.9965 ± 0.0053

TACAATTGAA
switch fluorescence ratio: 1 ± 0.025

TACAATTTTT
switch fluorescence ratio: 1.01 ± 0.028

TACACAGCGG
switch fluorescence ratio: 1.05 ± 0.045

TACACGCGGG
switch fluorescence ratio: 1.01 ± 0.048

TACACTTTGC
switch fluorescence ratio: 1.027 ± 0.0079

TACAGAGGCA
switch fluorescence ratio: 1.02 ± 0.031

TACAGGCGCT
switch fluorescence ratio: 0.994 ± 0.015

TACAGGGACC
switch fluorescence ratio: 1.022 ± 0.0034

TACAGGGCTC
switch fluorescence ratio: 1.05 ± 0.024

TACAGGGGCC
switch fluorescence ratio: 1 ± 0.022

TACAGGTTGT
switch fluorescence ratio: 1.21 ± 0.19

TACAGTAGCT
switch fluorescence ratio: 1.09 ± 0.011

TACAGTTTCG
switch fluorescence ratio: 1.03 ± 0.05

TACATAAAAC
switch fluorescence ratio: 1.011 ± 0.0025

TACATATTCG
switch fluorescence ratio: 0.989 ± 0.041

TACCAAACGG
switch fluorescence ratio: 2.23 ± 1.4

TACCACTTAA
switch fluorescence ratio: 1.03 ± 0.035

TACCACTTTG
switch fluorescence ratio: 1.24 ± 0.29

TACCCCAATT
switch fluorescence ratio: 1.068 ± 0.0037

TACCGACATA
switch fluorescence ratio: 1.189 ± 0.0084

TACCGCGGGG
switch fluorescence ratio: 1.04 ± 0.043

TACCGGGCTT
switch fluorescence ratio: 0.978 ± 0.02

TACCGGGGTC
switch fluorescence ratio: 1 ± 0.042

TACCGGGTCT
switch fluorescence ratio: 1.032 ± 0.005

TACCGGGTTT
switch fluorescence ratio: 0.9914 ± 0.0059

TACCGTGGGT
switch fluorescence ratio: 0.99 ± 0.021

TACCGTTGGG
switch fluorescence ratio: 1.01 ± 0.038

TACCTACTCG
switch fluorescence ratio: 1.18 ± 0.12

TACCTGGGTA
switch fluorescence ratio: 0.948 ± 0.028

TACCTGGTTT
switch fluorescence ratio: 1 ± 0.03

TACGAACTTT
switch fluorescence ratio: 1.31 ± 0.06

TACGAATTTT
switch fluorescence ratio: 1.02 ± 0.012

TACGAGTGCG
switch fluorescence ratio: 1.04 ± 0.06

TACGAGTTCT
switch fluorescence ratio: 0.984 ± 0.013

TACGATTTAA
switch fluorescence ratio: 1.01 ± 0.026

TACGCGGGCA
switch fluorescence ratio: 1.07 ± 0.11

TACGCGTAAT
switch fluorescence ratio: 1.012 ± 0.0052

TACGCTGACG
switch fluorescence ratio: 1.13 ± 0.087

TACGCTTATA
switch fluorescence ratio: 1.19 ± 0.042

TACGCTTCAT
switch fluorescence ratio: 1.02 ± 0.011

TACGGAAATG
switch fluorescence ratio: 1.0398 ± 0.00093

TACGGAAGGT
switch fluorescence ratio: 1.06 ± 0.034

TACGGAGGGT
switch fluorescence ratio: 1.22 ± 0.31

TACGGATCGT
switch fluorescence ratio: 0.974 ± 0.03

TACGGCGTAC
switch fluorescence ratio: 1.08 ± 0.051

TACGGCTTTT
switch fluorescence ratio: 1.01 ± 0.0062

TACGGGAGCC
switch fluorescence ratio: 1.01 ± 0.025

TACGGGAGGC
switch fluorescence ratio: 1.02 ± 0.032

TACGGGCGGC
switch fluorescence ratio: 1.05 ± 0.016

TACGGGCGGG
switch fluorescence ratio: 1.24 ± 0.17

TACGGGCTTT
switch fluorescence ratio: 1.03 ± 0.033

TACGGGGACA
switch fluorescence ratio: 1.07 ± 0.055

TACGGGGAT
switch fluorescence ratio: 1.84 ± 1.2

TACGGGGCCA
switch fluorescence ratio: 0.992 ± 0.01

TACGGGGGAA
switch fluorescence ratio: 1.26 ± 0.31

TACGGGTCGA
switch fluorescence ratio: 1.01 ± 0.016

TACGGGTTAG
switch fluorescence ratio: 1.031 ± 0.0034

TACGGGTTCG
switch fluorescence ratio: 0.99 ± 0.028

TACGGTCAGC
switch fluorescence ratio: 1.03 ± 0.016

TACGGTGCAG
switch fluorescence ratio: 0.981 ± 0.024

TACGGTGGTG
switch fluorescence ratio: 0.987 ± 0.018

TACGTACGCC
switch fluorescence ratio: 1.57 ± 0.073

TACGTATACT
switch fluorescence ratio: 1.39 ± 0.015

TACGTGTAGA
switch fluorescence ratio: 1.02 ± 0.056

TACGTTACTC
switch fluorescence ratio: 1.56 ± 0.018

From the supplement of paper PMC10126150
